{
  "source": "patent US20150118213A1",
  "about": "(OMRIX BIOPHARMACEUTICALS, published 2015)",
  "key": {"[1]": {"molecular_target": "thrombin (aqueous liquid purified and concentrated thrombin) (UniProt P00734 44-622; P00734 44-622)", "experiment": "cell-based or functional assay"}, "[2]": {"molecular_target": "T1, Fluorescein-labeled cyclic gamma-loop derived peptide (disulfide 1-12; also: fluorescein label, site not given here)", "T1 construct": "also called fluorescent gamma loop peptide", "T1 peptide": "CKETWTANVGKC", "experiment": "peptide microarray, immobilised 15-mer probed with fluorescein-labelled cyclic gamma-loop peptide; fluorescence scale 0-65535", "from_the_text": "Peptides were synthesized using SPOT synthesis (Wenschuh H, et al. (2000). Coherent membrane supports for parallel microsynthesis and screening of bioactive peptides. Biopolymers 55:188-206) and were chemoselectively immobilized onto functionalized glass slides as described (Panse S, et al. (2004) Profiling of generic anti-phosphopeptide antibodies and kinases with peptide microarrays using radioactive and fluorescence-based assays. Mol Divers 8:291-299.2.). Each peptide was printed in triplicates onto the microarray. For binding studies, 100 ng of purified thrombin (Omrix biopharmaceuticals) were directly labeled with DyLight 650 (DyLight® Microscale Antibody Labeling Kits, Thermo Scientific, #84536) and diluted in blocking buffer (SuperBlockT20 (TBS) Blocking Buffer, Thermo Scientific, #37536). The microarrays were incubated with 10 μg/ml DyLight 650-Thrombin or a Fluorescein-labeled cyclic gamma-loop derived peptide for one hour at 30° C. in a HS4800 microarray processing station (Tecan) (Masch A, et al., (2010) Antibody signatures defined by high-content peptide microarray analysis. Methods Mol Biol 669:161-172).\nMicroarrays were washed with 0.1% Tween-20 in 1×TBS followed by 0.05% Tween-20 in 0.1×SSC and dried in a stream of nitrogen. Each microarray was scanned using GenePix Autoloader 4200AL (Molecular Devices, Pixel size: 10 μm). Signal intensities were evaluated using spot recognition software Genepix Pro 7.0 analysis software (Molecular Devices). For each peptide, the mean signal intensity of the three triplicates was extracted. Further evaluation and representation of results was performed using the statistical computing and graphics software R (Version 2.11.1, www.r-project.org).\nOne array included peptides based on the thrombin sequence. Any peptide isolated from this library may reflect possible regions in the thrombin protein that may interact with the gamma loop. […] The fluorescence for the strongest binding candidates (hits) was quantified on an arbitrary scale of 0-65535 (2¹⁶). Thrombin activity was assessed as described in Example 1."}},
  "note": "Bridges are numbered along the chain shown (N, C = ends). Where no end group is shown, it is not given here.",
  "data": [
    {"binder": "CKETWTANVGKC (disulfide 1-12)", "note": "[cyclic gamma peptide]", "values": [
      {"measurement": "inhibition of thrombin clotting activity at 0.5 mM peptide", "setting": "[1]", "result": "~7", "unit": "%"}
    ]},
    {"binder": "KETWTANVGK", "note": "[linear gamma peptide (SEQ ID NO:1)]", "values": [
      {"measurement": "inhibition of thrombin clotting activity at 0.5 mM peptide", "setting": "[1]", "result": "~20", "unit": "%"}
    ]},
    {"binder": "ISMLEKIYIHPRYNW (15-mer from the thrombin derived peptide array)", "note": "[Thr_111]", "values": [
      {"measurement": "Binding intensity of gamma loop", "setting": "[2]", "result": 32800, "unit": "arbitrary units"}
    ]},
    {"binder": "LGNKKFVSGSRFVST (15-mer from the random peptide array; also called Rnd316; Rnd 316)", "note": "[Rnd_inter_316]", "values": [
      {"measurement": "Binding intensity of gamma loop", "setting": "[2]", "result": 26600, "unit": "arbitrary units"}
    ]},
    {"binder": "RIRITDNMFSAGYKP (Thrombin derived 15-mer in which Cysteine residues have been replaced by Serine)", "note": "[Thr_136_CS]", "values": [
      {"measurement": "Binding intensity of gamma loop", "setting": "[2]", "result": 25300, "unit": "arbitrary units"}
    ]},
    {"binder": "NITRSGIESQLWRSR (Thrombin derived 15-mer in which Cysteine residues have been replaced by Serine)", "note": "[Thr_031_CS]", "values": [
      {"measurement": "Binding intensity of gamma loop", "setting": "[2]", "result": 40800, "unit": "arbitrary units"}
    ]},
    {"binder": "WCYVAGKPGDFGYCD (15-mer from the thrombin derived peptide array; also called thrombin derived peptide Thr-069)", "note": "[Thr_069]", "values": [
      {"measurement": "Binding intensity of gamma loop", "setting": "[2]", "result": 50600, "unit": "arbitrary units"}
    ]},
    {"binder": "SHNQRFVTYLGSKLG (15-mer from the random peptide array; also called Rnd155; Random2)", "note": "[Rnd_inter_155]", "values": [
      {"measurement": "Binding intensity of gamma loop", "setting": "[2]", "result": 19500, "unit": "arbitrary units"}
    ]},
    {"binder": "SGIESQLWRSRYPHK (Thrombin derived 15-mer in which Cysteine residues have been replaced by Serine)", "note": "[Thr_032_CS]", "values": [
      {"measurement": "Binding intensity of gamma loop", "setting": "[2]", "result": 35100, "unit": "arbitrary units"}
    ]}
  ]
}
